Source: patent US8153597B2, “Modulators of the ABC transporter family and methods for their use” (priority 2003, dated 2012)
Read-outs that look alike come from different tables or passages of the source.

B1: PA2934-His: purified C-terminal penta-histidine tagged PA2934 (Cif, CFTR inhibitory factor; SEQ ID NO:1) expressed in E. coli (protein, listed as Pseudomonas aeruginosa)
chain: MILDRLCRGLLAGIALTFSLGGFAAEEFPVPNGFESAYREVDGVKLHYVKGGQGPLVMLVHGFGQTWYEWHQLMPELAKRFTVIAPDLPGLGQSEPPKTGYSGEQVAVYLHKLARQFSPDRPFDLVAHDIGIWNTYPMVVKNQADIARLVYMEAPIPDARIYRFPAFTAQGESLVWHFSFFAADDRLAETLIAGKERFFLEHFIKSHSSNTEVFSERLLDLYARSYAKPHSLNASFEYYRALNESVRQNAELAKTRLQMPTMTLAGGGHGGMGTFQLEQMKAYADDVEGHVLPGCGHWLPEECAAPMNRLVIDFLSRGR
modifications: C-terminal penta-His tag

Key:
[1] = tested on: CFTR-mediated Cl− secretion; test: Ussing chamber: CFTR-mediated Cl− secretion (Isc) across polarized CFBE41o− human airway epithelial cells; format: cell-based
Procedure: These experiments were conducted in CFBE41o− cells stably expressing either wt-CFTR or ΔF508-CFTR and in parental (non-transfected ΔF508/ΔF508) CFBE41o− cells. To increase apical membrane expression of ΔF508-CFTR, cells were grown at 27° C. for 36 hours in accordance with methods set forth in Example 5. […] Parental CFBE41o− cells, and CFBE41o− cells stably expressing either wt-CFTR or ΔF508-CFTR were incubated at 27° C. in a CO2 incubator in the absence of antibiotics. Vehicle or PA14 bacteria (5×10^8 CFU/ml) were added to the apical side of the monolayers.
Monolayers grown on Transwell (6.5 mm diameter) or Snapwell (12 mm diameter) permeable supports, as described in Example 1, were mounted in an Ussing-type chamber (Jim's Instruments; Iowa City, Iowa or Physiologic Instruments; San Diego, Calif.) and bathed in solutions, pH 7.4 maintained at 37° C. and stirred by bubbling with 5% CO2/95% air. Short circuit current (Isc) was measured by voltage-clamping the transepithelial voltage across the monolayers to 0 mV with a voltage clamp (model VCC MC6, Physiologic Instruments, San Diego, Calif.). Current output from the clamp was digitized by an analog-to-digital converter (iWorx; Dover, N.H.). Data collection and analysis were done with LabScribe v1.6 Software (iWorx; Dover, N.H.). Stimulated Isc was measured after addition of 100 μM CPT-cAMP (Calu-3 and MDCK cells) or 20 μM forskolin (wt-CFTR CFBE41o− cells) to the apical and basolateral bath solution or 50 μM genistein (ΔF508-CFTR CFBE41o− cells) to the apical bath solution. Net stimulated Isc (ΔIsc) was calculated by subtracting the baseline Isc measured before stimulation from the peak Isc measured after stimulation. Glybenclamide (200 μM) was added to the apical bath solution to inhibit CFTR-mediated Isc.
CFBE41o− cells were bathed in solutions with a basolateral-to-apical Cl− gradient in the presence of amiloride (100 μM) in the apical bath solution to inhibit Na+ absorption through the epithelial Na+ channel (ENaC). […]

wt-CFTR = test: Cell-surface biotinylation: apical membrane expression of wt-CFTR in canine (MDCK) cells; format: cell-based; details: purified protein
Procedure: In these experiments two human cell lines endogenously expressing CFTR, Pgp, BCRP and MRP2, and polarized canine and rat cells stably expressing wild-type (wt)-CFTR and/or Pgp, were contacted with a pelleted fraction of either P. aeruginosa strain PA14 or eight different clinical isolates. Apical membrane expression of CFTR, Pgp, and MRP2 was measured by cell-surface biotinylation. Epithelial cells were then lysed and biotinylated proteins were isolated, separated and amounts of apical membrane expression of CFTR, PgP and MRP2 were determined.
Epithelial cell cultures were grown on Transwell permeable growth supports (24 mm diameter, 0.4 μm pore size; Corning Corporation, Corning, N.Y.: #3412). Apical membrane expression of CFTR, Pgp, MRP1, BCRP and MRP2 was measured by cell-surface biotinylation as described by Lisanti, et al. (J. Cell Biol. 1989 109:2117-2127) and Swiatecka-Urban et al. J. Biol. Chem. 2002 277(42):40099-105).
MDCK cells stably expressing GFP-wt-CFTR or GFP-ΔF508-CFTR fusion proteins were established and maintained in culture in a 5% CO2/95% air incubator at 37° C. in MEM complete medium containing 50 U/ml penicillin, 50 μg/ml streptomycin, 2 mM L-glutamine, 10% FBS, and 150 μg/ml G418. Addition of GFP to the N-terminus of CFTR has no effect on CFTR localization, trafficking, function as a Cl channel, or on its degradation. MDCK cells were seeded on Transwell permeable supports (0.2×10^6 on 6.5 mm and 24 mm diameter, 0.4 μm pore size; Corning Corporation; Corning, N.Y.) and grown in culture at 37° C. for 7-10 days. Under these conditions, MDCK cells become polarized. Sodium butyrate (5 mM; Sigma-Aldrich; St. Louis, Mo.) was added to the MDCK cell culture medium 16-18 hours before experiments to stimulate CFTR expression.
In these experiments, apical membrane proteins were biotinylated at 4° C. using a derivative of biotin (EZ-Link™ Sulfo-NHS-LC-Biotin: Pierce). […] Biotinylated CFTR, Pgp, BCRP and MRP-2 were analyzed by Western blotting using antibodies against CFTR, Pgp, and MRP-2, respectively. […]

MDCK-GFP-MDR1 cells = format: cell-based, canine; details: pre-treatment 60 min, then Dox (0, 1, 3, 5 or 10 μM) for 4 hrs at 37 C; buffer ˜5%
Text: The studies above indicate that CIF reduces the plasma membrane expression of P-glycoprotein (i.e. Pgp or multidrug resistance protein (MDR)), MRP2, BCRP and other members of the ABC transmembrane protein family, whose functions include the transport of small molecules across cell membranes. More specifically, members of the ABC transporter family function by preventing therapeutics including but not limited to anti-cancer therapies and antibiotics from accumulating in the central nervous system, and by conferring the observed “drug resistance” of numerous cancers. […]
MDCK-GFP-MDR1 cells, MDCK-C7 cells stably transfected with GFP-Pgp under the transcriptional control of human MDR1 promoter as described by Maitra et al. (Biochem J 2001 355:617-624) were used in these studies. […] Cell viability was then assessed using the CellTiter 96Queous One Solution Cell Proliferation assay. After incubating for 4 hours at 37° C., the absorbance was determined at 490 nm.

[2] = Epoxide hydrolase activity assay, degradation of (S)-NEPC; format: biochemical; details: purified protein; 60 minute incubation period
Procedure: To assess whether Cif acts as an epoxide hydrolase, its ability to degrade the synthetic epoxide hydrolase substrate (2S,3S)-trans-3-Phenyl-2-oxiranylmethyl 4-nitrophenyl carbonate ((S)-NEPC) was assessed. This assay measures the production of the product p-nitrophenol, which is yellow in color and absorbs maximally at 405 nm.
Purified PA2934-His was assayed for its ability to degrade the epoxide hydrolase synthetic substrate (2S,3S)-trans-3-Phenyl-2-oxiranylmethyl 4-nitrophenyl carbonate ((S)-NEPC) (Sigma, St. Louis, Mo.). […] Degradation of (S)-NEPC was measured as an increase in absorbance at OD405 utilizing a Molecular Devices SpectraMax M2 plate reader. Reactions were normalized to controls lacking enzyme, accounting for spontaneous hydrolysis of the substrate.

Molecule	inhibition of forskolin stimulated CFTR-mediated Cl− ion secretion [1]	effect on apical expression of CFTR (wt-CFTR)	reduction of apical expression of CFTR (wt-CFTR; 60 minutes after treatment)	reduction of apical expression of CFTR (wt-CFTR; at 90 minutes)	inhibition of forskolin stimulated CFTR-mediated Cl− ion secretion ([1]; WT-CFBE cells, added to apical face, 50 μg PA2934-His, CFTRinh-172 5 μM)	reduction of CFTR Cl− currents ([1]; WT-CFBE cells, relative to CFTRinh-172-sensitive current)	reduction in cell viability (MDCK-GFP-MDR1 cells)	epoxide hydrolase activity (degradation of (S)-NEPC, absorbance at 405 nm) [2]
O=C(O)c1ccc(/C=C2\SC(=S)N(c3cccc(C(F)(F)F)c3)C2=O)cc1 [CFTRinh-172, reference compound]	~50 μA/cm^2	–	–	–	–	–	–	–
B1	–	significantly decreases	> 60%	> 70%	~30 μA/cm^2	approximately 60%	~25%	capable of degrading this compound in a protein concentration dependent manner
